Measured values: the RNAGym collection of RNA variant scans (doi:10.1073/pnas.2313332121)
This sample holds only a part of the variants without activity.

B1: TPR 5TU (parent)
chain: GGAUCUUCUCGAUCUAACAAAAAAGACAAAUCUGCCACAAAGCUUGAGAGCAUCUUCGGAUGCAGAGGCGGCAGCCUUCGGUGGCGCGAUAGCGCCAACGUUCUCAACUAUGACACGCAAAACGCGUGCUCCGUUGAAUGGAGUUUAUCAUG

Variants of: B1
Test: polymerase ribozyme fitness, log enrichment relative to wild type (log ratio); higher = more active; in vitro selection for triplet polymerase activity
Method in brief: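 The heterodimeric triplet polymerase ribozyme's subunits were each mutagenized into PCR-built libraries and transcribed. Every library was selected once, in triplicate, by annealing with a biotinylated primer, the partner subunit and triplets, incubating frozen at −7 °C, gel-excising extended constructs, capturing on streptavidin beads and running RT-PCR. Input and output libraries were Illumina-sequenced, with genotypes kept only at ≥10 input reads and ≥1 read per output. Fitness, from inverse-variance-weighted replicate averages, is the base-2 logarithm of genotype enrichment over wild-type enrichment.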

Variant	polymerase ribozyme fitness (log ratio)
U6G C95U C96G	-0.705
A22C C32G C43G G92A C114U C118G U139A	≤ -4.2
G68C G136U A142G	≤ -4.2
G83A G88A A91G G112U G140U G143C	≤ -4.2
A26U G84A C118A	-3.09
C54U G92U	-0.757
G94U C123G G141A U146C	-2.83
G46U G83U A119U C123A U145C	-3.34
C54A G92A	≤ -4.2
C5G U7A C93U A106C	-3.03
U61G G94A C108G	≤ -4.2
A91C A106G	≤ -4.2
A40G C54U C96U G141U	-2.2
C5G C105U	-0.0507
A47U C93G	-3.23
U90C A91U C114U C118U U144G	-4.15
A20C C79A U82C A107C	≤ -4.2
A20C A28U C93U C129U G143A	≤ -4.2
A40U A60G	0.828
A17G A24U A37C A41U G84A U101C C105A U111G C118U	≤ -4.2
C14G U55A C96U	-3.27

Variant	polymerase ribozyme fitness (log ratio)
U9A A28G A41C A64U G80U C87A C95U C131G	≤ -4.2
C76A C87U G92A	-2.16
C10G A26C C75A G84A	≤ -4.2
A47C C69A A89G G124A	-3.28
U9G U31G G83C C99U U144G	≤ -4.2
G59C C75U A98U	-0.152
C87G G141U	-3.61
A16G C43U C51U G80C G117A A142C	≤ -4.2
G11U C54U C72A U90G G92U U111G U148G	≤ -4.2
G48U G59U	0.371
A60U C93A	-3.06
G50C A60G	-2.31
C57U G86A A120G G141C	-2.82
A47C C72G G83U A142G	≤ -4.2
C35U C57G G86U G133A	-3.89
G83A A106G A119C	-0.0979
G50U A91U	≤ -4.2
C10G U144C	-3.87
G83A C132G G133C	-2.67
U56G U78C C99G G124C C125U	-2.94
U13G G83C U145C	-3.39

Variant	polymerase ribozyme fitness (log ratio)
U56A C95A	-0.487
C36A G84A	-3.37
A12G U144G	0.592
A60G C69A A91U A97U U134C	≤ -4.2
A40C C69G C75U A98U U135G U151G	≤ -4.2
C43U C63U A73C U78A G84U U90G C93U A119U A142U	≤ -4.2
A30U G94C A150U	-3.55
A3U C14G A28C A91U A97C A122C	≤ -4.2
A19U A28G G50A G68A G94U	≤ -4.2
C38G U45G U56A C93G C123A U127G	≤ -4.2
U55A G100C G126U G128C	≤ -4.2
U45C A52G C57A G92C	-2.64
G46A G70U C85G	≤ -4.2
C27U U56A G84U G86C C114G U145A	≤ -4.2
C35U A41C C105A	-4.09
U45A G46C A98U	≤ -4.2
G88A C93A C123U G126U G133U G140U	≤ -4.2
U53A C103U	-0.534
C5G A52G G80A	-1.81
C10A C54G G80C G81A C85U C129A U135C	≤ -4.2
A89G U139G	-0.875

Variant	polymerase ribozyme fitness (log ratio)
G83C A150G	-2.66
C35U A39C U56C C63U A110C A115G A121G G126A	≤ -4.2
C51U G143U	-2.3
U53A A64G	-3.41
A22U G46A	0.387
C18U A121U	-1.1
A98G U127G G141A	≤ -4.2
A23G C87U U127C	-3.81
A24G G124U	-4.06
A3U G46C U77C G86U A98U A121U U127A	-4.08
A60C A91U C93G A122C	≤ -4.2
C10G A40C U78G G84U G88U G141U	≤ -4.2
C43A G83C U90G G140U	≤ -4.2
G141C G143C	≤ -4.2
U33G C35U G59U C75G G128A U139A	-4.05
U4A C36A A52C A73G C95U	≤ -4.2
G67U C75A G92A G124U	≤ -4.2
C43U A89U G94U C105G C132A U151C	≤ -4.2
G94U A147G	-1.51
A66C C85A	≤ -4.2
C57A C96U C108U G140A	≤ -4.2
